Test results published in CN113150161A.

Target: 小菜蛾钙黏蛋白毒素结合区(PxCad-TBR) (小菜蛾 (Plutella xylostella))
Assay: competitive ELISA on coated PxCad-TBR, 500 μg/mL Cry2Aa, competitor 2G4 (3.75 μg/mL, molar ratio 294:1)

Work on “活化Cry2Aa毒素(分子量68 kDa) (from UniProt P0A377 50-633)” yielded a 抑制作用 (%) of 44%.
